T1: biotinylated recombinant human CEACAM5 (human, UniProt P06731 35-685, biotin on the C-terminal Avitag)
T1 construct: also called CD66e; not shown: C-terminal Avitag plus hexa-histidine tag, human Fc or mouse Fc
T1 sequence: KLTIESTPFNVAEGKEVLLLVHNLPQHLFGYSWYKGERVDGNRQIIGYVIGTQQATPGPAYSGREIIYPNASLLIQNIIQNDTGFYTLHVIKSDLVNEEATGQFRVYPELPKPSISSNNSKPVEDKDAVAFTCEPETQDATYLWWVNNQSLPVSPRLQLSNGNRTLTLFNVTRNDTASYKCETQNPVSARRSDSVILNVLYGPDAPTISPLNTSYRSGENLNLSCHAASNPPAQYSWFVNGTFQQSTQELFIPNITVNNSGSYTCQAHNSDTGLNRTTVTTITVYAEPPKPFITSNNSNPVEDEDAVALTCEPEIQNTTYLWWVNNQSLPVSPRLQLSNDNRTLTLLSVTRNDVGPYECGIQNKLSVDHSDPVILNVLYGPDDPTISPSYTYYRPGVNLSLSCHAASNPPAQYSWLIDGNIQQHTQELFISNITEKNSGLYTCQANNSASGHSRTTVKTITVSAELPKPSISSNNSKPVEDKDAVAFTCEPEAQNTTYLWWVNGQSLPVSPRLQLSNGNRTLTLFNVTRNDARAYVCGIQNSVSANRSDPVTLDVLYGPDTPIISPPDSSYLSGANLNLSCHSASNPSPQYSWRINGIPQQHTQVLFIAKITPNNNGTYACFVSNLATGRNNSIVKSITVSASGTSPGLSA

T2: human CEACAM5 expressed on MKN-45 wt cells (human, UniProt P06731 35-702)
T2 construct: MKN-45 cells also express CD47 and CEACAM6; also called CEACAM5 on MKN45
T2 sequence: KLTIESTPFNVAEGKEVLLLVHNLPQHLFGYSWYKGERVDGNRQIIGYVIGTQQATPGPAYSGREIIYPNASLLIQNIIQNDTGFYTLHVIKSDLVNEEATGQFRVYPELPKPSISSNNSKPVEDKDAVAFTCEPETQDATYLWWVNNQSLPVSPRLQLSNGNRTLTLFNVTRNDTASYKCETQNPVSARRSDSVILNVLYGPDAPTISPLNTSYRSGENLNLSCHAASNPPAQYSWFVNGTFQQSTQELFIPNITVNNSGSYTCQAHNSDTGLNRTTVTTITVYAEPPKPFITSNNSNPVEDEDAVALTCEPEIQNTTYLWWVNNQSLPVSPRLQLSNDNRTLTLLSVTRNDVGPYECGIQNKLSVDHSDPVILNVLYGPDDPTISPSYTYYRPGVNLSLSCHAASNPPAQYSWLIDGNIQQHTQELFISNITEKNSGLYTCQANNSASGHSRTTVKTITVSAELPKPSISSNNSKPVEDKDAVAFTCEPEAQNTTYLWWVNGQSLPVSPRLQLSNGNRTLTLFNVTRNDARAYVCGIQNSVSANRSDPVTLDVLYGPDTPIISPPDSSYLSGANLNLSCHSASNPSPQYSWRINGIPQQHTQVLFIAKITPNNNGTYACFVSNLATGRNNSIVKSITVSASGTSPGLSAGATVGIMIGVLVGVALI


How the values were obtained:
[1] = molecular target: T3, recombinant cynomolgus monkey CEACAM5 (cynomolgus monkey (macaca fascicularis)); assay: ELISA; biotinylated recombinant protein on streptavidin plate; bivalent mAb titrated
T3 construct: also called cyno CEACAM5; cynomolgus CEACAM5

[2] = molecular target: T1, biotinylated recombinant human CEACAM5; assay: as above
[3] = molecular target: T2, human CEACAM5 expressed on MKN-45 wt …; assay: flow cytometry on MKN-45 wt cells (express CEACAM5 and CD47)

Binder | EC50 [1] [pM] | EC50 [2] [pM] | EC50 [3] [pM] | Emax (MFI) [3] [MFI]
AC43 (antibody, human IgG1, kappa, V domains shown, Bivalent IgG1 mAb; 6 carries the IgG1 Fc) VH: not shown VL: DIQMTQSPSSLSASVGDRVTITCQASQNIPRTINWYQQKPGKAPKLLIYDISNLETGVPSRFSGSGSGTDFTFTISSLQPEDIATYYCQQVGLNPELTTFGQGTKVEIKR | 700 | 80 | – | –
AC42 (antibody, human IgG1, kappa, V domains shown, Bivalent IgG1 mAb; 6 carries the IgG1 Fc) VH: not shown VL: DIQMTQSPSSLSASVGDRVTITCQASQRIARTLNWYQQKPGKAPKLLIYNFSALETGVPSRFSGSGSGTDFTFTISSLQPEDIATYYCQQVGLDPNLTTFGQGTKVEIKR | 600 | 100 | – | –
AC61 (antibody, human IgG1, kappa, V domains shown, Bivalent IgG1 mAb; 6 carries the IgG1 Fc) VH: not shown VL: DIQMTQSPSSLSASVGDRVTITCQASQNIPRTINWYQQKPGKAPKLLIYDISNLETGVPSRFSGSGSGTDFTFTISSLQPEDIATYYCQQVTLDPEEMTFGQGTKVEIKR | 20 | 8 | – | –
AC60 (antibody, human IgG1, kappa, V domains shown, Bivalent IgG1 mAb; 6 carries the IgG1 Fc; 167 is the one used in the embodiments) VH: not shown VL: DIQMTQSPSSLSASVGDRVTITCQASQNIPRTINWYQQKPGKAPKLLIYDISNLETGVPSRFSGSGSGTDFTFTISSLQPEDIATYYCQQVGLNWDDRAFGQGTKVEIKR | 60 | 13 | – | –
AC63 (antibody, human IgG1, kappa, V domains shown, Bivalent IgG1 mAb; 6 carries the IgG1 Fc) VH: not shown VL: DIQMTQSPSSLSASVGDRVTITCQASQNIPRTINWYQQKPGKAPKLLIYDISNLETGVPSRFSGSGSGTDFTFTISSLQPEDIATYYCQSVTLWPELTTFGQGTKVEIKR | 20 | 16 | – | –
AC41 (antibody, human IgG1, kappa, V domains shown, Bivalent IgG1 mAb; 6 carries the IgG1 Fc) VH: not shown VL: DIQMTQSPSSLSASVGDRVTITCQASQEIAATLNWYQQKPGKAPKLLIYNYSTLETGVPSRFSGSGSGTDFTFTISSLQPEDIATYYCQQVGLNPENTTFGQGTKVEIKR | 600 | 300 | – | –
AC45 (antibody, human IgG1, lambda, V domains shown, Bivalent IgG1 mAb; 6 carries the IgG1 Fc) VH: not shown VL: QSVLTQPPSASGTPGQRVTISCSGSSSNIVGVGVNWYQQLPGTAPKLLIYSYNKRPSGVPDRFSGSKSGTSASLAISGLQSEDEADYYCAAYDADMIVPAPVFGGGTKLTVLG | 30 | 100 | – | –
K2AC58 (bispecific antibody, human IgG1, kappa, lambda) heavy: not shown light 1: QSVLTQPPSVSGAPGQRVTISCTGSSSNIGVAHDVHWYQQLPGTAPKLLIYDYSERPSGVPDRFSGSKSGTSASLAITGLQAEDEADYYCQSWDNGPNGLVWVFGGGTKLTVLGQPKAAPSVTLFPPSSEELQANKATLVCLISDFYPGAVTVAWKADSSPVKAGVETTTPSKQSNNKYAASSYLSLTPEQWKSHRSYSCQVTHEGSTVEKTVAPTECS light 2: not shown | – | – | 20000 | 300000
K2AC59 (bispecific antibody, human IgG1, kappa, lambda) heavy: not shown light 1: QSVLTQPPSVSGAPGQRVTISCTGSSSNIGVAHDVHWYQQLPGTAPKLLIYDYSERPSGVPDRFSGSKSGTSASLAITGLQAEDEADYYCQSWDNSENGLIYVFGGGTKLTVLGQPKAAPSVTLFPPSSEELQANKATLVCLISDFYPGAVTVAWKADSSPVKAGVETTTPSKQSNNKYAASSYLSLTPEQWKSHRSYSCQVTHEGSTVEKTVAPTECS light 2: not shown | – | – | 26000 | 400000
AC54 (antibody, human IgG1, lambda, V domains shown, Bivalent IgG1 mAb; 6 carries the IgG1 Fc; also called CEACAM5 mAb AC54) VH: not shown VL: QSVLTQPPSVSGAPGQRVTISCTGSSSNIHDVGYVHWYQQLPGTAPKLLIYGASGRPSGVPDRFSGSKSGTSASLAITGLQAEDEADYYCQSYDTRQVVPTPVFGGGTKLTVLG | 20 | 30 | – | –
AC52 (antibody, human IgG1, lambda, V domains shown, Bivalent IgG1 mAb; 6 carries the IgG1 Fc) VH: not shown VL: QSVLTQPPSVSGAPGQRVTISCTGSSSNIHDVGYVHWYQQLPGTAPKLLIYGASGRPSGVPDRFSGSKSGTSASLAITGLQAEDEADYYCQSYDTKREFPTPVFGGGTKLTVLG | 20 | 30 | – | –
AC55 (antibody, human IgG1, lambda, V domains shown, Bivalent IgG1 mAb; 6 carries the IgG1 Fc) VH: not shown VL: QSVLTQPPSVSGAPGQRVTISCTGSSSNIHDVGYVHWYQQLPGTAPKLLIYGASGRPSGVPDRFSGSKSGTSASLAITGLQAEDEADYYCQSYDTSAVFPTPVFGGGTKLTVLG | 20 | 30 | – | –

Other lines, results leading:

EC50 [1] [pM] | EC50 [2] [pM] | EC50 [3] [pM] | Emax (MFI) [3] [MFI] | Binder
10 | 12 | – | – | AC66 (antibody, human IgG1, kappa, V domains shown, Bivalent IgG1 mAb; 6 carries the IgG1 Fc) VH: not shown VL: DIQMTQSPSSLSASVGDRVTITCQASQNIPRTINWYQQKPGKAPKLLIYDISNLETGVPSRFSGSGSGTDFTFTISSLQPEDIATYYCQQVTLDPEENTFGQGTKVEIKR
30 | 14 | – | – | AC65 (antibody, human IgG1, kappa, V domains shown, Bivalent IgG1 mAb; 6 carries the IgG1 Fc) VH: not shown VL: DIQMTQSPSSLSASVGDRVTITCQASQNIPRTINWYQQKPGKAPKLLIYDISNLETGVPSRFSGSGSGTDFTFTISSLQPEDIATYYCGSVTLNPELTTFGQGTKVEIKR
10 | 12 | – | – | AC62 (antibody, human IgG1, kappa, V domains shown, Bivalent IgG1 mAb; 6 carries the IgG1 Fc) VH: not shown VL: DIQMTQSPSSLSASVGDRVTITCQASQNIPRTINWYQQKPGKAPKLLIYDISNLETGVPSRFSGSGSGTDFTFTISSLQPEDIATYYCQQVTLEPELTTFGQGTKVEIKR
30 | 16 | – | – | AC64 (antibody, human IgG1, kappa, V domains shown, Bivalent IgG1 mAb; 6 carries the IgG1 Fc) VH: not shown VL: DIQMTQSPSSLSASVGDRVTITCQASQNIPRTINWYQQKPGKAPKLLIYDISNLETGVPSRFSGSGSGTDFTFTISSLQPEDIATYYCQQVTLEPEELTFGQGTKVEIKR
40 | 50 | – | – | AC48 (antibody, human IgG1, lambda, V domains shown, Bivalent IgG1 mAb; 6 carries the IgG1 Fc) VH: not shown VL: QSVLTQPPSASGTPGQRVTISCSGSSSNINGVGVNWYQQLPGTAPKLLIYEFNKRPSGVPDRFSGSKSGTSASLAISGLQSEDEADYYCAAYDAARYVPAPVFGGGTKLTVLG
70 | 90 | – | – | AC44 (antibody, human IgG1, lambda, V domains shown, Bivalent IgG1 mAb; 6 carries the IgG1 Fc) VH: not shown VL: QSVLTQPPSASGTPGQRVTISCSGSSSNIVGVGVNWYQQLPGTAPKLLIYSYNKRPSGVPDRFSGSKSGTSASLAISGLQSEDEADYYCAAYDFLPVLPAPVFGGGTKLTVLG
40 | 70 | – | – | AC46 (antibody, human IgG1, lambda, V domains shown, Bivalent IgG1 mAb; 6 carries the IgG1 Fc) VH: not shown VL: QSVLTQPPSASGTPGQRVTISCSGSSSNIVGVGVNWYQQLPGTAPKLLIYSYNKRPSGVPDRFSGSKSGTSASLAISGLQSEDEADYYCAAYDFSLLLPAPVFGGGTKLTVLG
60 | 30 | – | – | AC47 (antibody, human IgG1, lambda, V domains shown, Bivalent IgG1 mAb; 6 carries the IgG1 Fc) VH: not shown VL: QSVLTQPPSASGTPGQRVTISCSGSSSNINGVGVNWYQQLPGTAPKLLIYGFNSRPSGVPDRFSGSKSGTSASLAISGLQSEDEADYYCAAYDMSTYVPAPVFGGGTKLTVLG
– | – | 129000 | 1.84e+06 | AC42K2 H-CL1 (bispecific antibody, human IgG1, kappa, lambda, CEACAM5xCD47 κλ body, IgG1, common heavy chain; CEACAM arm light chain fully kappa, CD47 arm light chain hybrid) heavy: not shown light 1: not shown light 2: DIQMTQSPSSLSASVGDRVTITCRASQSISSYLNWYQQKPGKAPKLLIYAASSLQSGVPSRFSGSGSGTDFTLTISSLQPEDFATYYCQQMHPRAPKTFGGGTKLTVLGQPKAAPSVTLFPPSSEELQANKATLVCLISDFYPGAVTVAWKADSSPVKAGVETTTPSKQSNNKYAASSYLSLTPEQWKSHRSYSCQVTHEGSTVEKTVAPTECS
20 | 20 | – | – | AC56 (antibody, human IgG1, lambda, V domains shown, Bivalent IgG1 mAb; 6 carries the IgG1 Fc) VH: not shown VL: QSVLTQPPSVSGAPGQRVTISCTGSSSNIINNSYVHWYQQLPGTAPKLLIYAPSNRPSGVPDRFSGSKSGTSASLAITGLQAEDEADYYCQSYDTTGVMPTPVFGGGTKLTVLG
20 | 30 | – | – | AC53 (antibody, human IgG1, lambda, V domains shown, Bivalent IgG1 mAb; 6 carries the IgG1 Fc) VH: not shown VL: QSVLTQPPSVSGAPGQRVTISCTGSSSNIHDVGYVHWYQQLPGTAPKLLIYGASGRPSGVPDRFSGSKSGTSASLAITGLQAEDEADYYCQSYDGRAVFPTPVFGGGTKLTVLG

Source: patent EP3831849A1 (LamKap Bio beta AG, dated 2021)
